Source: patent US20240409663A1 (CONCEPT TO MEDICINE BIOTECH, published 2024)
Like-named read-outs stand apart in the source and are kept apart here.

Experiments:
human GPC3 on cells [1] = biological target: T1, human GPC3 on cells (human, UniProt P51654 25-554); assay: FACS, Huh-7 cells
human GPC3 on cells [2] = biological target: T1, human GPC3 on cells; assay: FACS, HEPG2 cells
human GPC3 on cells [3] = biological target: T1, human GPC3 on cells; assay: cell-based or functional assay
human GPC3 on cells [4] = biological target: T1, human GPC3 on cells; assay: FACS, HEPG2 cells; remark: listed apart in the source
human GPC3 on cells [5] = biological target: T1, human GPC3 on cells; assay: FACS, GPC3-CHOK1 cells
human GPC3 on cells [6] = biological target: T1, human GPC3 on cells; assay: FACS, GPC3-CHOK1 cells; remark: listed apart in the source
human GPC3 on cells [7] = biological target: T1, human GPC3 on cells; assay: FACS, Huh-7 cells
Protocol: (§1) To evaluate the antigen binding property, the humanized antibodies were analyzed for their binding to human GPC3 over-expressed CHOK1 cells and Huh-7 cells by FACS. Briefly, GPC3-CHOK1 cells and Huh-7 cells were firstly incubated with Fc blocking reagent at 4° C. for 15 mins. Cells were washed by FACS buffer and divided to each well with 4-fold serially diluted humanized antibodies starting at 10 μg/mL at 4° C. for 60 mins. Cells were washed by FACS buffer and fixed with 2% PFA at RT for 15 mins. […] As different plates might affect the EC50 of 52H5D3B8-VH+VL, the 12 humanized antibodies were separated into two plates.

[8] = biological target: T2, human GPC3-his tag protein (human, UniProt P51654 25-559, limits assumed); assay: SPR Biacore 8K, mAb captured, affinity ranking
T2 construct: recombinant soluble antigen used as analyte in all Biacore runs; also called recombinant GPC3 protein; rhGPC3-His; not shown: His tag
Protocol: To evaluate antigen binding activity, the chimeric antibody's affinity was measured by Biacore 8K. Two concentrations with most close affinity to the chimeric antibody's affinity were chosen for the 12 humanized antibodies' affinity detection. Human GPC3-his tag protein was injected over captured antibody for 3 mins at a flow rate of 30 μl/min. The antigen was allowed to dissociate for 720 s.

human GPC3 on cells [9] = biological target: T1, human GPC3 on cells; assay: cell-based or functional assay; remark: listed apart in the source
human GPC3 on cells [10] = biological target: T1, human GPC3 on cells; assay: FACS, HEPG2 cells
Source text: (§2) FACS was used to evaluate the binding activity of Hu 52H5D3B8-7 and Hu 52H5D3B8-8 with comparison to benchmark antibodies GC33 and Y035 on human GPC3 expressed on CHOK1 cells, Huh-7 cell and HEPG2 cells. In order to evaluate the properties of CDRs and frameworks of Hu 52H5D3B8-7 Ab, two chimeric antibodies were generated. The antibody termed “Hu 52H5D3B8-7/8 CDRs with Y035 FRs” contains the Hu 52H5D3B8-7 CDRs and the Y035 FRs. The antibody termed “Y035 CDRs with Hu 52H5D3B8-7 FRs” represents the chimeric antibody with the Y035 CDRs engrafted to Hu 52H5D3B8-7 FRs.

human GPC3 on cells [11] = biological target: T1, human GPC3 on cells; assay: FACS, GPC3-CHOK1 cells
Source text: as §2

human GPC3 on cells [12] = biological target: T1, human GPC3 on cells; assay: FACS, GPC3-CHOK1 cells; remark: listed apart in the source
Protocol: as §1

human GPC3 on cells [13] = biological target: T1, human GPC3 on cells; assay: FACS, Huh-7 cells; remark: listed apart in the source
Source text: as §2

human GPC3 on cells [14] = biological target: T1, human GPC3 on cells; assay: FACS, Huh-7 cells; remark: listed apart in the source
Protocol: as §1

human GPC3 on cells [15] = biological target: T1, human GPC3 on cells; assay: FACS, GPC3-CHOK1 cells; remark: listed apart in the source
Protocol: as §1

B1: Y035 (Carsgen Therapeutics, US20190046659) (antibody, from another filing, V domains shown)
VH: EVQLVQSGAEVKKPGASVKVSCKASGYTFSDYEMHWVRQAPGQGLEWMGAIHPGSGDTAYNQRFKGRVTITADKSTSTAYMELSSLRSEDTAVYYCARFYSYAYWGQGTLVTVSA
VL: DIVMTQTPLSLPVTPGEPASISCRSSQSLVHSNGNTYLQWYLQKPGQSPQLLIYKVSNRFSGVPDRFSGSGSGTDFTLKISRVEAEDVGVYYCSQSIYVPYTFGQGTKLEIKR
In the case of B1, the EC50 (human GPC3 on cells [1]) is reported as 1.18 nM, the EC50 (human GPC3 on cells [2]) is reported as 1.59 nM and the internalization activity to HEPG2 cells, EC50 (pHAb dye fluorescence) (human GPC3 on cells [3]) is reported as 1.08 µg/mL. The internalization activity to HEPG2 cells, Top (pHAb dye fluorescence) (human GPC3 on cells [3]) was 52000, the EC50 (human GPC3 on cells [4]) was 1.25 nM and the EC50 (human GPC3 on cells [5]) was 1.46 nM. It also gave an EC50 (human GPC3 on cells [6]) of 1.42 nM.

B2: Hu 52H5D3B8-7 (antibody, V domains shown)
VH: EVQLVQSGAEVKKPGASVKVSCKASGYTFTDYEMHWVRQAPGQGLEWMGAIHPGSGGTAYNQKFKGRVTMTADKSISTAYMELSRLRSDDTAVYYCTRFYSYAYWGQGTLVTVSS
VL: DVVMTQTPLSLSVTPGQPASISCRSSQSLVHSNGNTYLQWYLQKPGQSPQLLIYKVSNRFSGVPDRFSGSGSGTDFTLKISRVEAEDVGVYYCSQSIHVPYTFGGGTKVEIK
notes: humanized 52H5D3B8; also called 52H5D3B8 VH3 + VL0
B2 showed an EC50 (human GPC3 on cells [7]) of 0.0242 µg/mL, a Kd [8] of 3.23 nM and a koff [8] of 0.00103 s⁻¹. The kon [8] was 320000 M⁻¹ s⁻¹, the “internalization activity to HEPG2 cells, EC50 (pHAb dye fluorescence)” value (human GPC3 on cells [9]) was 0.72 µg/mL and the EC50 (human GPC3 on cells [10]) was 0.757 nM. For the same binder, the EC50 (human GPC3 on cells [11]) was 0.467 nM, the EC50 (human GPC3 on cells [12]) was 0.0447 µg/mL and the EC50 (human GPC3 on cells [13]) was 0.464 nM.

B3: Hu 52H5D3B8-8 (antibody, V domains shown)
VH: EVQLVQSGAEVKKPGASVKVSCKASGYTFTDYEMHWVRQAPGQGLEWMGAIHPGSGGTAYNQKFKGRVTMTADKSISTAYMELSRLRSDDTAVYYCTRFYSYAYWGQGTLVTVSS
VL: DVVMTQTPLSLSVTPGQPASISCRSSQSLVHSNGNTYLQWYLQKPGQSPQLLIYKVSNRFSGVPDRFSGSGSGTDFTLKISRVEAEDVGVYFCSQSIHVPYTFGGGTKVEIK
notes: humanized 52H5D3B8; also called 52H5D3B8 VH3 + VL1
For B3, the EC50 (human GPC3 on cells [7]) was 0.0233 µg/mL, the Kd [8] was 3.31 nM and the koff [8] was 0.0011 s⁻¹. For the same binder, the kon [8] was 332000 M⁻¹ s⁻¹, the “internalization activity to HEPG2 cells, EC50 (pHAb dye fluorescence)” value (human GPC3 on cells [9]) was 0.78 µg/mL and the EC50 (human GPC3 on cells [10]) was 0.693 nM. For the same binder, the EC50 (human GPC3 on cells [11]) was 0.434 nM, the EC50 (human GPC3 on cells [12]) was 0.0432 µg/mL and the EC50 (human GPC3 on cells [13]) was 0.418 nM.

B4: Hu 52H5D3B8-10 (antibody, V domains shown)
VH: EVQLVQSGAEVKKPGASVKVSCKASGYTFTDYEMHWVRQAPGQGLEWIGAIHPGSGGTAYNQKFKGRVTLTADKSISTAYMELSRLRSDDTAVYYCTRFYSYAYWGQGTLVTVSS
VL: DVVMTQTPLSLSVTPGQPASISCRSSQSLVHSNGNTYLQWYLQKPGQSPQLLIYKVSNRFSGVPDRFSGSGSGTDFTLKISRVEAEDVGVYFCSQSIHVPYTFGGGTKVEIK
notes: humanized 52H5D3B8; also called 52H5D3B8 VH4 + VL1
Binder B4 has a Kd [8] of 3.89 nM, a koff [8] of 0.00104 s⁻¹ and a kon [8] of 267000 M⁻¹ s⁻¹. For the same binder, the EC50 (human GPC3 on cells [14]) was 0.0323 µg/mL and the EC50 (human GPC3 on cells [15]) was 0.0389 µg/mL.

B5: Hu 52H5D3B8-7/8 CDRs with Y035 FRs (antibody, V domains shown)
VH: EVQLVQSGAEVKKPGASVKVSCKASGYTHSDYEMHWVRQAPGQGLEWMGAIHPGSGGTAYNQKFKGRVTITADKSTSTAYMELSSLRSEDTAVYYCARFYSYAYWGQGTLVTVSA
VL: DIVMTQTPLSLPVTPGEPASISCRSSQSLVHSNGNTYLQWYLQKPGQSPQLLIYKVSNRFSGVPDRFSGSGSGTDFTLKISRVEAEDVGVYYCSQSIHVPYTFGQGTKLEIKR
With B5 the “internalization activity to HEPG2 cells, EC50 (pHAb dye fluorescence)” value (human GPC3 on cells [9]) was 1.14 µg/mL, the EC50 (human GPC3 on cells [10]) was 1.16 nM and the EC50 (human GPC3 on cells [11]) was 0.798 nM. It also gave an EC50 (human GPC3 on cells [13]) of 0.782 nM.

B6: Y035 CDRs with Hu 52H5D3B8-7 FRs (antibody, V domains shown)
VH: EVQLVQSGAEVKKPGASVKVSCKASGYTFTDYEMHWVRQAPGQGLEWMGAIHPGSGDTAYNQRFKGRVTMTADKSISTAYMELSRLRSDDTAVYYCTRFYSYAYWGQGTLVTVSS
VL: DVVMTQTPLSLSVTPGQPASISCRSSQSLVHSNGNTYLQWYLQKPGQSPQLLIYKVSNRFSGVPDRFSGSGSGTDFTLKISRVEAEDVGVYYCSQSIYVPYTFGGGTKVEIK
With B6 the “internalization activity to HEPG2 cells, EC50 (pHAb dye fluorescence)” value (human GPC3 on cells [9]) was 1.11 µg/mL, the EC50 (human GPC3 on cells [10]) was 1.05 nM and the EC50 (human GPC3 on cells [11]) was 0.985 nM. For the same binder, the EC50 (human GPC3 on cells [13]) was 0.667 nM.

B7: Hu 52H5D3B8-11 (antibody, V domains shown)
VH: EVQLVQSGAEVKKPGASVKVSCKASGYTFTDYEMHWVRQAPGQGLEWIGAIHPGSGGTAYNQKFKGKATLTADKSISTAYMELSRLRSDDTAVYYCTRFYSYAYWGQGTLVTVSS
VL: DVVMTQTPLSLSVTPGQPASISCRSSQSLVHSNGNTYLQWYLQKPGQSPQLLIYKVSNRFSGVPDRFSGSGSGTDFTLKISRVEAEDVGVYYCSQSIHVPYTFGGGTKVEIK
notes: humanized 52H5D3B8; also called 52H5D3B8 VH5 + VL0
B7 gave a Kd [8] of 3.06 nM, a koff [8] of 0.000905 s⁻¹ and a kon [8] of 295000 M⁻¹ s⁻¹. The EC50 (human GPC3 on cells [14]) was 0.0288 µg/mL and the EC50 (human GPC3 on cells [15]) was 0.04 µg/mL.

B8: Hu 52H5D3B8-12 (antibody, V domains shown)
VH: EVQLVQSGAEVKKPGASVKVSCKASGYTFTDYEMHWVRQAPGQGLEWIGAIHPGSGGTAYNQKFKGKATLTADKSISTAYMELSRLRSDDTAVYYCTRFYSYAYWGQGTLVTVSS
VL: DVVMTQTPLSLSVTPGQPASISCRSSQSLVHSNGNTYLQWYLQKPGQSPQLLIYKVSNRFSGVPDRFSGSGSGTDFTLKISRVEAEDVGVYFCSQSIHVPYTFGGGTKVEIK
notes: humanized 52H5D3B8; also called 52H5D3B8 VH5 + VL1
B8 gave a Kd [8] of 3.22 nM, a koff [8] of 0.001 s⁻¹ and a kon [8] of 310000 M⁻¹ s⁻¹. It also gave an EC50 (human GPC3 on cells [14]) of 0.0294 µg/mL and an EC50 (human GPC3 on cells [15]) of 0.0384 µg/mL.
